Results published in US20250051788A1.

Legend:
Assay in all cases: anti-FLAG IP-MS vs mock IP
[1] = molecular target: Phosphoserine aminotransferase (PSAT) (AT4G35630) (Arabidopsis thaliana) (UniProt Q96255)
[2] = molecular target: thioglucoside glucohydrolase 1 (TGG1) (AT5G26000) (Arabidopsis thaliana) (UniProt P37702)
[3] = molecular target: Thioredoxin superfamily protein (ATHM2) (AT4G03520) (Arabidopsis thaliana) (UniProt Q9SEU8)
[4] = molecular target: Nodulin-related protein 1 (NRP1) (AT2G03440) (Arabidopsis thaliana) (UniProt Q9ZQ80)
Sequence of UniProt Q9ZQ80 (Q9ZQ80 whole entry): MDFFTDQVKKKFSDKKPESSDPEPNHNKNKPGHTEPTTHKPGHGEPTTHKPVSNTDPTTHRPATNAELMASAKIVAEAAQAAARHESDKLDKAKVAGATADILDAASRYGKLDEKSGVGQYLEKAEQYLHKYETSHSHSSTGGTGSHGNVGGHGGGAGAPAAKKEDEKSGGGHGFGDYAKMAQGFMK

Sequence of UniProt Q96255 (Q96255 52-430): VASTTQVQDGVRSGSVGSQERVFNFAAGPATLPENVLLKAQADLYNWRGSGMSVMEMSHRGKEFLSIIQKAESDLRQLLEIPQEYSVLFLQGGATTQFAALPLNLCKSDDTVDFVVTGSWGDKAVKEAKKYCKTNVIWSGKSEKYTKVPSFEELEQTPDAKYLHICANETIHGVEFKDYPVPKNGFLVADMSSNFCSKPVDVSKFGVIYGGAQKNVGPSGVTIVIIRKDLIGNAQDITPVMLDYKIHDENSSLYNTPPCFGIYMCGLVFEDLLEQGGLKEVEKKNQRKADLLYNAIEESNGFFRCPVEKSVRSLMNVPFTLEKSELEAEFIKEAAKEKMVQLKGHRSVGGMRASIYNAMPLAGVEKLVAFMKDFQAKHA
Sequence of UniProt P37702 (P37702 20-541 limits assumed): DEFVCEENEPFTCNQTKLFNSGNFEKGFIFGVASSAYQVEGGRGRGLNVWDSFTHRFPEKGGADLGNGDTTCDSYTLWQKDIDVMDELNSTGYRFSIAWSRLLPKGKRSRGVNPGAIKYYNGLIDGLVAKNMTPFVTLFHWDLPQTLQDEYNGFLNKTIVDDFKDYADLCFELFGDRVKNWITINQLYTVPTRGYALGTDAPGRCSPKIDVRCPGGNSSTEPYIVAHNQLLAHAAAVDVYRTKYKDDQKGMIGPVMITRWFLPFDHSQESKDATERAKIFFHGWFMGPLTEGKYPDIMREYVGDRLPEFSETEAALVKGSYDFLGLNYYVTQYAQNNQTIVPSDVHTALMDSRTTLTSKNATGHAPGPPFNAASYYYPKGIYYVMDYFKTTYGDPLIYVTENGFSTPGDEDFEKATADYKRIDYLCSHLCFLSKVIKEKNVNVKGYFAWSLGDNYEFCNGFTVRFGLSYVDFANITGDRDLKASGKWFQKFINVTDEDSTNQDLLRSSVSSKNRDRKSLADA
Sequence of UniProt Q9SEU8 (Q9SEU8 73-186): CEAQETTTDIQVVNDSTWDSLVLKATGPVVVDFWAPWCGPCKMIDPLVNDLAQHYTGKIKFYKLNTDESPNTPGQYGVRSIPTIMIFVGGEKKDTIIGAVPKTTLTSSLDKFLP

Log2(FC) Replicate 1/ Mock [1]: 3.09 log2 | Log2(FC) Replicate 2/ Mock [1]: 3.17 log2 | Log2(FC) Replicate 3/ Mock [1]: 1.81 log2 | Log2(FC) Replicate 4/ Mock [1]: 1.81 log2 | Log2(FC) Replicate 1/ Mock [2]: -0.214 log2 | Log2(FC) Replicate 2/ Mock [2]: 0.697 log2 | Log2(FC) Replicate 3/ Mock [2]: 1.95 log2 | Log2(FC) Replicate 4/ Mock [2]: 1.84 log2 | Log2(FC) Replicate 1/ Mock [3]: 0.585 log2 | Log2(FC) Replicate 2/ Mock [3]: 2.17 log2 | Log2(FC) Replicate 3/ Mock [3]: 3.39 log2 | Log2(FC) Replicate 4/ Mock [3]: 3.09 log2 | Log2(FC) Replicate 1/ Mock [4]: 2 log2 | Log2(FC) Replicate 2/ Mock [4]: 2.5 log2 | Log2(FC) Replicate 3/ Mock [4]: 1.74 log2 | Log2(FC) Replicate 4/ Mock [4]: 1.87 log2
Substance: FLAG-BD (FLAG-tagged minimal Arabidopsis BRN1 protein that contains only the first two RRM domains) (from UniProt Q8LFS6 2-199)
